Data: paper PMC8056755 (The Journal of Cell Biology, 2021)
No end group written: not given here.

T1: purified His-tagged septin 7 (full length) (UniProt Q16181 1-437)
T1 sequence: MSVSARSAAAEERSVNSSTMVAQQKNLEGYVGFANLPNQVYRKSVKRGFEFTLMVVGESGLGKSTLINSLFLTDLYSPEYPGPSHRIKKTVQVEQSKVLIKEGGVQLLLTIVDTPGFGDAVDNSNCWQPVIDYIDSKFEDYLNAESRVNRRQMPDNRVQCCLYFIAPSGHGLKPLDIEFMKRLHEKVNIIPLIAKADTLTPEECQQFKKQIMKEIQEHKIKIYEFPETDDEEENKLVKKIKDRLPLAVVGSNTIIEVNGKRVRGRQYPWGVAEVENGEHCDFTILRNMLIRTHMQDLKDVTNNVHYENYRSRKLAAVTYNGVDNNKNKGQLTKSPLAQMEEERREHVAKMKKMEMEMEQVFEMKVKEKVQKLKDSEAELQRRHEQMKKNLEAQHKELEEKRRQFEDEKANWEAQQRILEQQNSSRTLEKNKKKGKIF

T2: SEPT7-ΔCC (septin 7 residues 1-331, lacking the coiled coil domain), His-tagged (UniProt Q16181 1-331)
T2 sequence: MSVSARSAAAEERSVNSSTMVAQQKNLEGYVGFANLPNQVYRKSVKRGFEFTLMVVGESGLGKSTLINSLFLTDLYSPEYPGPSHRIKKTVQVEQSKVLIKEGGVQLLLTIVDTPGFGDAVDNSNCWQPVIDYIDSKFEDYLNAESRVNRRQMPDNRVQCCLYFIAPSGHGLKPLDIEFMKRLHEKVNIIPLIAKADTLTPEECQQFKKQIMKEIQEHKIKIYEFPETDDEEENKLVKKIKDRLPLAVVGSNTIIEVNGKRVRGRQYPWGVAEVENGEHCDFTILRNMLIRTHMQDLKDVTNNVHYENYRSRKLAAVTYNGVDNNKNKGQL

B1: FIT2-Strep-His8-GFP fusion protein, reconstituted into proteoliposomes (natural protein)
chain: MEHLERCEWLLRGTLVRAAVRRYLPWALVASMLAGSLLKELSPLPESYLSNKRNVLNVYFVKVAWAWTFCLLLPFIALTNYHLTGKAGLVLRRLSTLLVGTAIWYICTSIFSNIEHYTGSCYQSPALEGVRKEHQSKQQCHQEGGFWHGFDISGHSFLLTFCALMIVEEMSVLHEVKTDRSHCLHTAITTLVVALGILTFIWVLMFLCTAVYFHNLSQKVFGTLFGLLSWYGTYGFWYPKAFSPGLPPQSCSLNLKQDSYKK

How the values were obtained:
[1] = target: T1, purified His-tagged septin 7 (full …); assay: proteoliposome coflotation
[2] = target: T1, purified His-tagged septin 7 (full …); assay: BLI
[3] = target: T2, SEPT7-ΔCC (septin 7 residues 1-331, …); assay: BLI

Row | Binder | binding result [1] | binding result [2] | binding result [3]
1 | B1 | binds | – | –
2 | MEHLERCEWLLRGTLVRAAVRRY (also: biotinylated, site not given here) [biotinylated FIT2 N-terminal loop peptide (NTL, residues 1-23)] | – | binds | binds
